Laboratory results: patent US20030125296

Assays:
[1] = tested on: IRDBP-1 expressed from pCR IRDBP-1 in transfected COS 7 cells
[2] = tested on: T1, RPRAATF substrate of glycogen synthase kinase 3β
T1 sequence: RPRAATF

[3] = tested on: E. coli-expressed NFκB p50
[4] = tested on: Thioredoxin (Trx) alone, expressed in E. coli from a pET32 vector [thioredoxin: P0AA25]
[5] = tested on: Trx-IRDBP-1 fusion protein (His6-tagged thioredoxin fusion of the 1503 bp coding region of the cDNA SEQ ID NO: 44)
Chain of Trx-IRDBP-1 fusion protein (His6-tagged thioredoxin fusion of the 1503 bp coding region of the cDNA SEQ ID NO: 44) (chain, as listed by the source): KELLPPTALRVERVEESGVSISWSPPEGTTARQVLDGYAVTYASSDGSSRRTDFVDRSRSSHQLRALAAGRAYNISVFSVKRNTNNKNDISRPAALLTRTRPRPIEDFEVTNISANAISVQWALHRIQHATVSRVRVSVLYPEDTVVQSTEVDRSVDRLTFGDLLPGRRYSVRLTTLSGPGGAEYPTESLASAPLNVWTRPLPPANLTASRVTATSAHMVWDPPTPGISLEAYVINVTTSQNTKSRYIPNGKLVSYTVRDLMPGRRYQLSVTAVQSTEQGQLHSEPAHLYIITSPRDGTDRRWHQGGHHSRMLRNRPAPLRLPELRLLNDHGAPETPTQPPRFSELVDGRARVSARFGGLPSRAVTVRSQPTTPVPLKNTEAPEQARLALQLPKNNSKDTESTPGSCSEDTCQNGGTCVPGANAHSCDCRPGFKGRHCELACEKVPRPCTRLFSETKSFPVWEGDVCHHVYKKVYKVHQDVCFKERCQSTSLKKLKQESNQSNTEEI

Chain of Thioredoxin (Trx) alone, expressed in E. coli from a pET32 vector [thioredoxin: P0AA25] (P0AA25 whole entry, the tested form may be a part): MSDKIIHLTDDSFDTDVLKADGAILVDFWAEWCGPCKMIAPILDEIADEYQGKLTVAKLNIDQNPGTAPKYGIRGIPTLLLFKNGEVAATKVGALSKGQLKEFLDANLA
Chain of IRDBP-1 expressed from pCR IRDBP-1 in transfected COS 7 cells (chain, as listed by the source): as the sequence (chain, as listed by the source) above

Substance	IRDBP-1-induced IRE activity (IRE-mediated transcription) [1]	in vitro phosphorylation with [γ-32P] ATP [2]	in vitro phosphorylation with [γ-32P] ATP, SDS-PAGE [3]	in vitro phosphorylation with [γ-32P] ATP, SDS-PAGE [4]	in vitro phosphorylation with [γ-32P] ATP, SDS-PAGE [5]	IRDBP-1-induced IRE transcription [1]
wild-type Akt1 (pUSEamp expression vector, cotransfected)	Wild-type Akt1 expression, like Akt myr, stimulated IRDBP-1-induced IRE activity to the same extent as the addition of insulin (lane 7 vs. lane 4)					
Akt (endogenous, COS 7 cells)		Akt phosphorylated the RPRAATF substrate of glycogen synthase kinase 3β, used as a positive control	Akt and Erk did not phosphorylate the controls of Trx alone, and the p50 subunit of NFκB	Akt and Erk did not phosphorylate the controls of Trx alone, and the p50 subunit of NFκB	Akt and Erk Trx-IRDBP-1 were capable of phosphorylating Trx-IRDBP-1	
Erk (Erk1/2; endogenous, COS 7 cells)			Akt and Erk did not phosphorylate the controls of Trx alone, and the p50 subunit of NFκB	Akt and Erk did not phosphorylate the controls of Trx alone, and the p50 subunit of NFκB	Akt and Erk Trx-IRDBP-1 were capable of phosphorylating Trx-IRDBP-1	
Erk2 (pUSEamp expression vector, cotransfected)						Erk2 decreased IRDBP-1-induced IRE transcription by 45±4% (lane 5 vs. lane 3)
